The target of the series is T1, T4 DNA ligase (T4DL) (UniProt P00970 1-487).
T1 sequence: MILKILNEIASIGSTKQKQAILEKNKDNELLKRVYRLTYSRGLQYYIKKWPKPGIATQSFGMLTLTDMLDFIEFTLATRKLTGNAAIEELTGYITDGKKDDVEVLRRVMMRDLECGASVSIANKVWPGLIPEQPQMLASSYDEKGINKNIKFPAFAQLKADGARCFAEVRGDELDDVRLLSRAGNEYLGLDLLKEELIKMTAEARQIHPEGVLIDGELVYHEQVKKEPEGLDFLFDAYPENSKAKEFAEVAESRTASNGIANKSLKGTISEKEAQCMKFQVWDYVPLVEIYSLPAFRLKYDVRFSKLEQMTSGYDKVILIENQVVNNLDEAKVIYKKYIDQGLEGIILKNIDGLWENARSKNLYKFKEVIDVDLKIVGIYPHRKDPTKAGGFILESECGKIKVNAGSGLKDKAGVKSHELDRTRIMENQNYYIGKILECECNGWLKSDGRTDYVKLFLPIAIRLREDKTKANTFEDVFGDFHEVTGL
Briefly: fluorescence anisotropy. (Polarisation of emitted light reports the rotation of a fluorescent probe.)

B1: DAS1M (structured_DNA)
DNA: ATCTCGACTAGTCAGTCTCCCCAGCTAAAAAAAAAAAAAGTTGGGGAAAAAAAAAATCCGAATGTCTCGGAT
modifications: 5' phosphate
On to B1, for which the dissociation constant (Kd) – broadly, the concentration at which binding is half-saturated – worked out at 1.27 ± 0.3 µM.

The record behind these values is paper PMC9896561.
